For this assay, the target named is IbcK (isobutylene catabolism gene K product), epoxide hydrolase from Mycolicibacterium sp. ELW1 (Mycolicibacterium sp. ELW1). The experiment in a line: SEC; Biosep-SEC S3000 column on UPLC, 10 mM Tris-HCl pH 7, 150 mM NaCl, 0.3 mL/min, 10 µL injected; two peaks, dimer to monomers.

The stoichiometry N is the number of molecules, sites or subunits per partner or assembly.

“IbcK (isobutylene catabolism gene K product), epoxide hydrolase from Mycolicibacterium sp. ELW1 (enzyme)” yielded a stoichiometry N of 2.

The values above are taken from paper PMC12442371.
